1 molecule from PMC11794253 can be followed below.

For experiment [1], the target named is His-tagged FcγRIIIa/CD16a extracellular domain (amino acids 17-208), V158 allotype (UniProt P08637). The experiment in a line: SPR. (In SPR one partner is held on a chip, and binding of the other changes the refractive index at the surface.)
In experiment [2] the target is human neonatal Fc receptor (hFcRn) (human) (UniProt P55899). Nature of the experiment: SPR.
Sequence of UniProt P55899 (P55899 24-297, chain 1 of 2): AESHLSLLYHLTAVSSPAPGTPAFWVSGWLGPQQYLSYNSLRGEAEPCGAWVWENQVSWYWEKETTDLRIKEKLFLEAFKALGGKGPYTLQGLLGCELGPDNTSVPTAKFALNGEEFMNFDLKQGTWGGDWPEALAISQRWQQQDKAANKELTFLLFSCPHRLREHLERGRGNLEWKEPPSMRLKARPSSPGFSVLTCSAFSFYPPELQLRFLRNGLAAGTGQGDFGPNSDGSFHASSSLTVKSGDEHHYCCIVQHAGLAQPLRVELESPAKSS
Sequence of UniProt P55899 (P61769 21-119, chain 2 of 2, further chain): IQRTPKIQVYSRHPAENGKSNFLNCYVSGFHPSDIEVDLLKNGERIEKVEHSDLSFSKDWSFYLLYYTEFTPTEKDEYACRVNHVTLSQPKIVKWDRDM

Sequence of UniProt P08637 (P08637 17-208 F176V): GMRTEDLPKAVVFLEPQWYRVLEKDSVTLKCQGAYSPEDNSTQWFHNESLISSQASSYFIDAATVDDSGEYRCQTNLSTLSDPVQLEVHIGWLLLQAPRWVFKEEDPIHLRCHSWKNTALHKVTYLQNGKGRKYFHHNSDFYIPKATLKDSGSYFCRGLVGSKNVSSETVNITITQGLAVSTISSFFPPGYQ

B1: COVA2-15 IgG1, wild type, produced in N. benthamiana ΔXT/FT (antibody, V domains shown)
VH: QVQLLESGGGLVQPGGSLRLSCAASGFTFSSYAMSWVRQAPGKGLEWASAISGSGGSTYYADSVEGRFTISRDNSKNTLYLQMNSLRAEDTAVYYCAKDTGYCGDDCYIKLIRGGPDYWGQGTLVTVSS
VL: DIVMTQSPLSLPVTLGQPASISCRSSQSLVYSDGNTFLNWFQQRPGQSPRRLIYQVSNRDSGVPDRFSGSGSGTDFTLKISRVEAEDVGVYYCMQGTHWPRTFGQGTKLEIK
As to B1, the kon (in general, the second-order rate constant of association) in experiment [1] turned out to be 306000 M⁻¹ s⁻¹; in experiment [2] it was 389000 M⁻¹ s⁻¹. The Kd (as a rule, the constant that tells how readily two partners part at equilibrium) was 127 nM in experiment [1] (from kinetic rate constants), 259 nM in experiment [1] (steady-state analysis), 344 nM in experiment [2] (KD from steady-state analysis) and 196 nM in experiment [2] (kinetic 1:1 binding model fit).
